Experiments:
[1] = tested on: K4 kissing-loop RNA reporter; experiment: apparent KD of K4 kissing-loop reporter; higher = weaker reporter binding; details: Eterna round: R107;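 note: bound reporter read as fluorescence of individual clusters on recovered sequencing chips by microscopy, with normalized cluster intensities fitted with a binding model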
Protocol: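 RNA-MaP round R107: designed RNA switches with theophylline, tryptophan, arginine or FMN aptamers are transcribed on-chip within common flanks. They are titrated with a labelled K4 kissing-loop RNA reporter in RNA-MaP buffer (100 mM Tris pH 7.5, 80 mM KCl, 4 mM MgCl2), without ligand or with the indicated ligand. Median apparent KD per design.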

MS2 coat protein = experiment: apparent KD of MS2 coat protein; designed switch direction (-1 OFF switch, 1 ON switch): -1; higher = weaker reporter binding
Method in brief: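 SNAP-549-labelled MS2 coat protein was titrated, doubling from 0.7 or 1.5 nM to 3 µM, over designed RNA switches transcribed on Illumina chips by stalled E. coli RNA polymerase. Runs were done without input, with 200 uM small-molecule ligand, or with an oligonucleotide input. Apparent KD is the per-design median over clusters of curve-fitted normalised fluorescence.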

[2] = input ligand: theophylline 20 uM
[3] = input ligand: tryptophan 2.4 mM
[4] = Eterna round: R95, input ligand: microRNA oligo, concentration not stated
[5] = input ligand: microRNA oligo, concentration not stated
[6] = Eterna round: R95, input ligand: FMN 200 uM
[7] = Eterna round: R95, input ligand: none

| Sequence | apparent KD of MS2 coat protein (MS2 coat protein; input ligand: FMN 200 uM) [nM] | apparent KD of MS2 coat protein (MS2 coat protein; input ligand: none) [nM] | apparent KD of MS2 coat protein (MS2 coat protein; [5]) [nM] | other results |
| --- | --- | --- | --- | --- |
| AAUUUAUUAACUGAUACCAGACUAAUUUUAUUUAUUAAGUCAAGUGAUGUUUGACUUUAUGUCCCUUGGCAGCAGAAUUAAUUAA [JR_SSTheophyB_Sub019] |  |  |  | apparent KD of K4 kissing-loop reporter ([1]; input ligand: FMN 200 uM): 126 nM; apparent KD of K4 kissing-loop reporter ([1]; input ligand: arginine 13.2 mM): 143 nM; apparent KD of K4 kissing-loop reporter ([1]; input ligand: none): 124 nM; apparent KD of K4 kissing-loop reporter [1, 2]: 112 nM; apparent KD of K4 kissing-loop reporter [1, 3]: 128 nM |
| UACUGGGCGAGUGAUGUUUGCUCAUGUGAUACCAGUGCCAUCCAACACCCUUGGCAGCAUGCGGGCAGUGAUGUUGUCCAUGGAA [Exclusion Theophylline A GF10] |  |  |  | apparent KD of K4 kissing-loop reporter ([1]; input ligand: FMN 200 uM): 629 nM; apparent KD of K4 kissing-loop reporter ([1]; input ligand: arginine 13.2 mM): 597 nM; apparent KD of K4 kissing-loop reporter ([1]; input ligand: none): 667 nM; apparent KD of K4 kissing-loop reporter [1, 2]: 645 nM; apparent KD of K4 kissing-loop reporter [1, 3]: 640 nM |
| UGUCAUUGGUCUGAUACCAGUUGGGACGAAUACGUCCAACUGGAGUGAUGUUCCUAAAACAACCCUUGGCAGCAGACCGAUGACU [TheoBS 13 #SwitchBubble 13 #StaticStem] |  |  |  | apparent KD of K4 kissing-loop reporter ([1]; input ligand: FMN 200 uM): 870 nM; apparent KD of K4 kissing-loop reporter ([1]; input ligand: arginine 13.2 mM): 782 nM; apparent KD of K4 kissing-loop reporter ([1]; input ligand: none): 1040 nM; apparent KD of K4 kissing-loop reporter [1, 2]: 638 nM; apparent KD of K4 kissing-loop reporter [1, 3]: 750 nM |
| AUGCGACAUGAGGAUCACCCAUGUGAGGAUAUUCGAAUGCACAAUUCGGUGUGAUAGAGGAGAAGGCGCAGGUA [EX1 #19] (Eterna round: R97, puzzle: Exclusion 1) | 154 | 243 |  |  |
| GCUGGUCGAGGAUAUACAUGAGGAUCACCCAUGUGGUCACGUGACGAUAGUCACGAAUGUAGAAGGUGACCAGC [E3/3-B1] (Eterna round: R97, puzzle: Exclusion 3) | 107 | 1760 |  |  |
| CGGAGUUAGGAGGAUAUGACGAACGCACGUCGUUCAGAAGGCCUAACAUGAGGAUCACCCAUGUGCUUAACACG [Eternabot (L2) Solution 59] (Eterna round: R97, puzzle: Exclusion 6) | 48.7 | 35.7 |  |  |
| UCCUAACAUGAGGAUCACCCAUGUCAGGAUAUGAUACUAUGUACUUCGGUACAUAGUAUCAGAAGGGACAUCCU [Ex1-3: 9] (puzzle: Exclusion 1) |  |  |  | apparent KD of MS2 coat protein (MS2 coat protein; [4]): 14.7 nM |
| UUCGUGCAGCUUUGCUGUACGCGUACAUGAGGAUCACCCAUGUAGGAUAUGGUAGGCAAAGCUUACUAGAAGGAUAUGGUGAGC [Mat - Exclusion NG 3 - Mod of JL - D79] (Eterna round: R96, puzzle: Exclusion NG 3) | 30.3 | 21.4 | 15.5 |  |
| AUCGUGUCAGGAUAUUGAAGUUCCGGGCAGUCCACGGAGCUCGAGAAGGGACAUGAGGAUCACCCAUGUCUCAU [Eternabot (L1) Solution 84] (Eterna round: R97, puzzle: Exclusion 4) | 21.4 | 18.6 |  |  |
| AGCGACCAAGGAUAUACAUGAGGAUCACCCAUGUCGGCGACCUUCCUGGGAUUUCUUAGUAGAAGGUGGUCAAU [Gesodieddi] (puzzle: Exclusion 3) |  |  |  | apparent KD of MS2 coat protein (MS2 coat protein; [4]): 35.2 nM |
| CCGGCAUGGUGCGGUAGUUGUACAACAUGAGGAUCACCCAUGUAGGAUAUGCGCGUGGUCACGCCGCAGAAGGACAACGUAUGG [Random, 25% A] (Eterna round: R96, puzzle: Exclusion NG 3) | 668 | 96 | 89.4 |  |
| CCCAGUUAUUGAGGAUAUCCUACAUGAGGAUCACCCAUGUAAUAAAUGAGGAUUUCGGGUGUCUAGGAGAAGGCAAGGAUAGGC [Ostracism 22 - Jieux - Exclusion NG 2] (Eterna round: R96, puzzle: Exclusion NG 2) | 63.7 | 50.5 | 39.8 |  |
| AUUCUUCAUAUCACAUGAGGAUCACCCAUGUUAUUCAUCGCGUAGGAUAUCGAGAAUUUUAAAUACGAGAAGGACGAAUUGAUA [JR_ExcNG3_Sub071] (Eterna round: R96, puzzle: Exclusion NG 3) | 35.1 | 35.3 | 31.8 |  |
| AAUCAACAUGAGGAUCACCCAUGUGAGGAUAUACGCAUGCAUGCAUGCAUGCAUGCAAGUAGAAGGCACAAUAC [Design #17] (Eterna round: R97, puzzle: Exclusion 1) | 42 | 27.9 |  |  |
| AAAAAACAAGCUUUUUGAAACAUGAGGAUCACCCAUGUCUUAUAAAAUAAAAAUAAAAAUAAAAAUAAAAUAAAAAA [Sensor V2: 80 Random] (Eterna round: R96, puzzle: Sensor v2, turn-off variant) | 36.2 | 37.4 | 67.9 |  |
| GAUCAUGCAGGAUAUACAUGGACCAUGAAAACAUGGUUUUCACAUGAGGAUCACCCAUGUAGAAGGGCAUGAUC [Omei Ex2 A8] (Eterna round: R97, puzzle: Exclusion 2) | 275 | 1400 |  |  |

| Sequence | apparent KD of MS2 coat protein (MS2 coat protein; input ligand: FMN 200 uM) [nM] | apparent KD of MS2 coat protein (MS2 coat protein; input ligand: none) [nM] | apparent KD of MS2 coat protein (MS2 coat protein; [5]) [nM] | other results |
| --- | --- | --- | --- | --- |
| AUCAUGUAAGGAUAUCUUACAUGUGACUUCGGUCACUGUUCAGAGAAGGUACAUGAGGAUCACCCAUGUAGAAC [Ex4-3: 45] (puzzle: Exclusion 4) |  |  |  | apparent KD of MS2 coat protein (MS2 coat protein; [4]): 18.5 nM |
| CUAAGUCGAGGAUAUGCAUGGUGACAUGAUGCCGAUGCACGACAUGAGGAUCACCCAUGUAGAAGGCGACUUAG [Eternabot (L2) Solution 50] (Eterna round: R97, puzzle: Exclusion 2) | 8.04 | 835 |  |  |
| CUGAGGUAGCGGUCCUAUGACAUGAGGAUCACCCAUGUACCUUGCUUUGAGCUUUUUGCUCGUCUUAUGAUUCUCGG [JL Atriat mod 6] (puzzle: Sensor v3, turn-off variant 1) |  |  |  | apparent KD of MS2 coat protein (MS2 coat protein; [6]): 472 nM; apparent KD of MS2 coat protein (MS2 coat protein; [4]): 283 nM; apparent KD of MS2 coat protein (MS2 coat protein; [7]): 462 nM |
| GUGGAGUAAGGAUAUACAUGAGGAUCACCCAUGUGAGGGUAUGAGAAGGGAAUGAGAGGUAGAAGGUACGAGGG [JR_Exclu3_Sub070] (puzzle: Exclusion 3) |  |  |  | apparent KD of MS2 coat protein (MS2 coat protein; [4]): 111 nM |
| UUGUAGUUUGUAGGAUAUGGUUAUGUAUGUAAUCUAGAAGGACAUGAGGAUCACCCAUGUGGAGGUAAGUUGGGAAGAAGUAAU [random1] (Eterna round: R96, puzzle: Exclusion NG 1) | 55.6 | 56.4 | 30.8 |  |
| AGCGCCAUGCUCGUCUUACACAUGAGGAUCACCCAUGUUGGGUCUCAGAUGCGGUAAUAGCCCGUUGAAUCUAGUGG [Eternabot (L1) Solution 38] (Eterna round: R97, puzzle: Sensor, turn-off variant 1) | 182 | 191 |  |  |
| ACUCUUCUAGUUAGGAUAUGCAUCGGGCUUCCGCAGCAGAAGGAACAUGAGGAUCACCCAUGUCAAAUAAAAUC (Eterna round: R97, puzzle: Brourd's mod of Exclusion 4) | 34.8 | 20.6 |  |  |
| UAUUAGUAAGGAUAUGAGACGUAGGACGCAAGUCCUACGUCUCAGAAGGUACAUGAGGAUCACCCAUGUCUAUU [Mod of Fisker 10 - Jieux - Exclusion 4] (Eterna round: R97, puzzle: Exclusion 4) | 21.2 | 22.2 |  |  |
| CCAUCGAGUGUGAGGAUAUGCUGUUCCUAAGAGCAGCAGAAGGCACAUGAGGAUCACCCAUGUGGAUACGGUGG [Mat - Exclusion 4 - JL Mod - D81] (puzzle: Brourd's mod of Exclusion 4) |  |  |  | apparent KD of MS2 coat protein (MS2 coat protein; [6]): 172 nM; apparent KD of MS2 coat protein (MS2 coat protein; [4]): 29.2 nM; apparent KD of MS2 coat protein (MS2 coat protein; [7]): 31.1 nM |
| UGCCGUUGAGGAUAUACAUAGAAAUAGAUUCAUGUAAAACUACAUGAGGAUCACCCAUGUAGAAGGCAAUGGCU [Mat - Exclusion 2 - JL Mod - D51] (Eterna round: R97, puzzle: Exclusion 2) | 128 | 23.9 |  |  |
| AGAAACUCAAGAGGAUAUCACAUGAGGAUCACCCAUGUAUAGCGCGCUAUGCUAGUCCUCGUAUUUGAGAAGGUUUGAUAAAUG [Mat - Exclusion NG 2 - Mod of JL - D78] (Eterna round: R96, puzzle: Exclusion NG 2) | 16.2 | 16.9 | 14.2 |  |
| CUUCACGGAGGAUAUGCGGGCUGCGACAUGAGGAUCACCCAUGUUUAUGGAGCUUGGCAUGCAGAAGGCCGGGAGC [Eternabot (L2) Solution 19] (Eterna round: R97, puzzle: Exclusion 5) | 9.81 | 10.6 |  |  |
| ACAUGAGGAUCACCCAUGUACUGGGUUUAGUUUCAUCGUUUGAAGGAUAUACUCCGUUAGUUGUCGUAGAAGGUCACAGUUUGG [JR_ExcNG3_Sub008] (Eterna round: R96, puzzle: Exclusion NG 3) | 457 | 517 | 407 |  |
| UACAUGAGGAUCACCCAUGUUUUGUCGUGUAUGGUAUUUAUCUAGGAUAUCAAGUUAGUUAUUUAUGAGAAGGAGAAUAUUAAU [JMF's solution 29] (Eterna round: R96, puzzle: Exclusion NG 3) | 42.5 | 39.4 | 30.7 |  |
| CGGACACCAGUAGGAUAUGUAGGAUAUGUUGUUGAGGAUCACCCAACAAAUUAAACGACAGAAGGACAGAAGGACUGUUCUCCU [pwkr exNG2 2xFMN 1xF5.2] (Eterna round: R96, puzzle: Exclusion NG 2) | 18.6 | 24.7 | 14.5 |  |
| CUCGAGUUAGGAUAUGGCGGCGACUGUGUUCGCAGAUCGCACCAGAAGGAACAUGAGGAUCACCCAUGUGACGG [Eternabot (L1) Solution 42] (Eterna round: R97, puzzle: Exclusion 4) | 348 | 89.7 |  |  |
